The chains are these.
B1: Ref047 [MK-4830, LILRB2 specific] (antibody, from another filing, V domains shown)
VH: EVQLQQWGAGLLKPSETLSLTCAVYGGSFSGYYWSWIRQPPGKGLEWIGEINHAGSTNYNPSLKSRVTISVDTSKNQFSLKLSSVTAADTAVYYCARLPTRWVTTRYFDLWGRGTLVTVSS
VL: ESVLTQPPSVSGAPGQRVTISCTGSSSNIGAGYDVHWYQQLPGTAPKLLIYGDSNRPSGVPDRFSVSKSGASASLAITGLQAEDEADYYCQSFDNSLSAYVFGGGTQLTVL
B2: Ref062 [NGM707, cross-specific] (antibody, from another filing, V domains shown)
VH: QVQLVQSGAEVKKPGASVKVSCKASGYTFTDYYINWVRQAPGQGLEWMGNVNPNDGGTTYNQKFKGRVTMTTDTSTSTAYMELRSLRSDDTAVYYCARREIYFYGTIYYYAMDYWGQGTLVTVSS
VL: DIQLTQSPSFLSASVGDRVTITCRASESVDYYGNSFMYWYQQKPGKAPKLLIYFASNLESGVPSRFSGSGSGTEFTLTISSLQPEDFATYYCQQNNEDPWTFGGGTKVEIKR
B3: A-028 (antibody, V domains shown)
VH: QVQLVQSGAEVKKPGSSVKVSCKASGYSFSEHAMSWVRQAPGQGLEWMGGIIPKFSTSVFAQKFQGRVTITADESTSTAYMELSSLRSEDTAVYYCAKGPPVGSSSWYTDWYFDLWGRGTLVTVSS
VL: SYELTQPPSVSVSPGQTASITCSGDKLGDKYASWYQQKPGQSPVLVIYQDSKRPSGIPERFSGSNSGNTATLTISGTQAEDEADYYCLSYGAHSHGVVFGGGTKLTVL
notes: tested as IgG
B4: A-038 (antibody, V domains shown)
VH: B3 VH with Y27G, S28T, E31S, H32Y, M34I, K54I, S56G, S58A, V59N, F60Y
VL: SYELTQPPSVSVSPGQTASITCSGDKLGDKYASWYQQKPGQSPVLVIYQDSKRPSGIPERFSGSNSGNTATLTISGTQAEDEADYYCSLYGAGHTVVFGGGTKLTVL
notes: tested as IgG
B5: A-047 (antibody, V domains shown)
VH: B3 VH with S28T, E31K, H32S, I52V, S56H, F60Y
VL: B4 VL
notes: tested as IgG
B6: A-032 (antibody, V domains shown)
VH: QVQLVQSGAEVKKPGSSVKVSCKASGGTFQSYAFSWVRQAPGQGLEWMGGIVPQYSTAVYAQKFQGRVTITADESTSTAYMELSSLRSEDTAVYYCAKGPPVGSSSWYTDWYFDLWGRGTLVTVSS
VL: B3 VL
notes: tested as IgG
B7: A-030 (antibody, V domains shown)
VH: B6 VH with T28S, Q54I, S56Y, V59T
VL: B3 VL
notes: tested as IgG
B8: A-029 (antibody, V domains shown)
VH: B3 VH with S28T, E31I, H32Y, K54S, S56R, S58A, F60Y
VL: B3 VL
notes: tested as IgG
B9: A-031 (antibody, V domains shown)
VH: B6 VH with G27Y, Q30T, S31K, Y32T, F34M, V52I, Q54S, S56Y
VL: B3 VL
notes: tested as IgG
B10: A-048 (antibody, V domains shown)
VH: B3 VH with S28T, E31K, H32S, I52V, S56H, F60Y
VL: B4 VL with S88A, A92G
notes: tested as IgG
B11: A-040 (antibody, V domains shown)
VH: B6 VH with Q30S, F34I, V52I, Q54I, Y55F, S56G, V59N
VL: B4 VL with A92P, G93A, V96G
notes: tested as IgG
B12: A-041 (antibody, V domains shown)
VH: B6 VH with Q30S, F34I, V52I, Q54I, Y55F, S56G, V59N
VL: B4 VL with L89S, A92S, H94L
notes: tested as IgG
B13: A-039 (antibody, V domains shown)
VH: B6 VH with Q30S, F34I, V52I, Q54I, Y55F, S56G, V59N
VL: B4 VL with S88A, A92G
notes: tested as IgG
B14: A-033 (antibody, V domains shown)
VH: B3 VH with S28T, E31S, K54T, S56K, S58A
VL: B3 VL
notes: tested as IgG

Positions count from the first letter of the chain named.

T3 sequence (Q8NHL6 24-461 limits assumed): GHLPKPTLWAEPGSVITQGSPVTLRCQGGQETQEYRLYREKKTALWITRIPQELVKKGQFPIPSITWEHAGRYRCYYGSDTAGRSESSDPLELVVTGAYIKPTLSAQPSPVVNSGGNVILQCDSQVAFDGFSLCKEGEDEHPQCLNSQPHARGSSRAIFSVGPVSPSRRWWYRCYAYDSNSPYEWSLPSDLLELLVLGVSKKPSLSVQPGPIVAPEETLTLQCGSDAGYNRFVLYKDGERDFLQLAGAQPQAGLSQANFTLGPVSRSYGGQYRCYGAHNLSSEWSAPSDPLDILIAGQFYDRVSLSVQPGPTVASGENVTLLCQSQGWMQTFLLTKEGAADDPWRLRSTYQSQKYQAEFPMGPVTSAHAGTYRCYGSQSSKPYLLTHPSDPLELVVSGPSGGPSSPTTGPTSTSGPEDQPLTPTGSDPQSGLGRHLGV
T4 sequence (Q8N6C8 24-439 limits assumed): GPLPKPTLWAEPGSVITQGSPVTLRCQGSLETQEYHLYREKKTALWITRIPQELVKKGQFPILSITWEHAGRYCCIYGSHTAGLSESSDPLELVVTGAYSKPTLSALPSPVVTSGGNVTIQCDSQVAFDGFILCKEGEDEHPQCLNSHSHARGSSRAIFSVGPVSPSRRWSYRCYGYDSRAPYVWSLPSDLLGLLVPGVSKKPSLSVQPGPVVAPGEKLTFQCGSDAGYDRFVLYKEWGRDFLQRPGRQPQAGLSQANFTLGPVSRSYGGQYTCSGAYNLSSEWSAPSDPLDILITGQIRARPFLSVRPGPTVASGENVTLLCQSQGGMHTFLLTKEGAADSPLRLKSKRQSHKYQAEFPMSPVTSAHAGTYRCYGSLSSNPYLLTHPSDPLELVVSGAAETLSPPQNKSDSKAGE
Sequence of LILRA1 on transiently transfected Expi293 cells (human) (O75019 17-489 limits assumed): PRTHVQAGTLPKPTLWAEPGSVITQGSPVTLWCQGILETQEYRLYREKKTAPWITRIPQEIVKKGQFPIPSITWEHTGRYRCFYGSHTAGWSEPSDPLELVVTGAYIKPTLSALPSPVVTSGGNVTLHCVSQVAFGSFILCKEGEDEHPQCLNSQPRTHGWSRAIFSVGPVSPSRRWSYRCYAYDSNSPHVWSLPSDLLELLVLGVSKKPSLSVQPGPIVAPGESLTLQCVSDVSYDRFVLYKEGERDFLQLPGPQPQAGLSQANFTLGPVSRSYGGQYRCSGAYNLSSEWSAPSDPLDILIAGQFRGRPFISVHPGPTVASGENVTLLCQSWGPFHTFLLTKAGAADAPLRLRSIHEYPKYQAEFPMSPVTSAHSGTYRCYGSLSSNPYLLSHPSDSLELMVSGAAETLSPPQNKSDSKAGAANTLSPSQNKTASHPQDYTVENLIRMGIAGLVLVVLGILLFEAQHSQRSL
Sequence of LILRB1 on transiently transfected Expi293 cells (human) (Q8NHL6 24-650 limits assumed): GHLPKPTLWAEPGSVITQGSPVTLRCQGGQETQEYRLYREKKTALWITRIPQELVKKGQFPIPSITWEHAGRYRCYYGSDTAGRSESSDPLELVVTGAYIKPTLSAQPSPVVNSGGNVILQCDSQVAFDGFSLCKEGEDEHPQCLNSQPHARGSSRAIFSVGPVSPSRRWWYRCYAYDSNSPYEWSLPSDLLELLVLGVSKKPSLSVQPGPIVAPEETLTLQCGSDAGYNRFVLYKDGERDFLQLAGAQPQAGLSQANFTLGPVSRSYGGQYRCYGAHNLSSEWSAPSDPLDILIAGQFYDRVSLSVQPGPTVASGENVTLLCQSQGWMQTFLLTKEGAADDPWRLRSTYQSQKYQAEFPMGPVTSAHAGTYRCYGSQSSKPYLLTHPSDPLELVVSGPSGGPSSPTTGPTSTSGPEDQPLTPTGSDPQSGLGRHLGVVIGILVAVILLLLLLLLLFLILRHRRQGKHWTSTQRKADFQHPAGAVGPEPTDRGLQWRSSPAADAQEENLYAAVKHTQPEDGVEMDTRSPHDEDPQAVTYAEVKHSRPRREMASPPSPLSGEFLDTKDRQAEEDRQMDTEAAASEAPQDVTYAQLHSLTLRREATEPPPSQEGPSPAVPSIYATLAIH

The first assay deals with LILRB2 on transiently transfected Expi293 cells (human) (UniProt Q8N423). Put plainly: flow cytometry, transfected Expi293 cells. On the technique in general: A flow cytometer gives signals particle by particle.
Sequence of LILRB2 on transiently transfected Expi293 cells (human) (Q8N423 22-597 limits assumed): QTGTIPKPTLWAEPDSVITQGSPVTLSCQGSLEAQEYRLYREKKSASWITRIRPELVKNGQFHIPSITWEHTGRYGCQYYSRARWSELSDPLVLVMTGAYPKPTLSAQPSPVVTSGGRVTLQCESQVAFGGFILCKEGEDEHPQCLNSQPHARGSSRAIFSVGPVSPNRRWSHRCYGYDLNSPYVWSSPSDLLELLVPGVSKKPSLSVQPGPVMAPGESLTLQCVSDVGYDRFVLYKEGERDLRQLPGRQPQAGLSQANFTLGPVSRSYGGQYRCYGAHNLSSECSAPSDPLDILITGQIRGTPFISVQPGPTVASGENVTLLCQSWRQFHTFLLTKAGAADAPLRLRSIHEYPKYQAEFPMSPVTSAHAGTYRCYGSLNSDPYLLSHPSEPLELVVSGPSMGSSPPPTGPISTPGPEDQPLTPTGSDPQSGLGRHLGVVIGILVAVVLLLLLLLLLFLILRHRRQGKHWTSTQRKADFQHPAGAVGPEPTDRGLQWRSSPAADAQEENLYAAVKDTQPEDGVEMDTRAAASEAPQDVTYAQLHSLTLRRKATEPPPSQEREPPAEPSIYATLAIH
On to B1, for which the EC50 (commonly the concentration that produces a half-maximal response) is 1.7 nM.

In turn, B2 gave a concentration for a half-maximal effect (EC50) of 17.3 nM. Against the preceding molecule, the EC50 is about 10-fold higher.

A further assay has as its target LILRB1 on transiently transfected Expi293 cells (human) (UniProt Q8NHL6). Put plainly: flow cytometry, transfected Expi293 cells.
As to B2, the concentration for a half-maximal effect (EC50) was determined as 9.1 nM. This lies in the single-digit nanomolar range.

Another assay addresses LILRA1 on transiently transfected Expi293 cells (human) (UniProt O75019). Put plainly: flow cytometry, transfected Expi293 cells.
For the molecule B2, the half-maximal effective concentration (EC50) was determined as 3.7 nM.

Another assay deals with LILRA3 on transiently transfected Expi293 cells (human) (UniProt Q8N6C8). Put plainly: flow cytometry, transfected Expi293 cells.
Sequence of LILRA3 on transiently transfected Expi293 cells (human) (Q8N6C8 24-439 limits assumed): as the sequence (Q8N6C8 24-439 limits assumed) above
As for B2, the half-maximal effective concentration (EC50) is 7.8 nM.

In the next assay the target is LILRB2 on Jurkat reporter cells (ILT4/HLA-G Blockade Bioassay Kit, Promega) (human) (UniProt Q8N423). Put plainly: cell-based or functional assay.
Sequence of LILRB2 on Jurkat reporter cells (ILT4/HLA-G Blockade Bioassay Kit, Promega) (human) (Q8N423 22-597 limits assumed): as the sequence (Q8N423 22-597 limits assumed) above
As to B2, the luminescence of LILRB2-expressing Jurkat reporter cells with HLA-G expressing APC/CHO-K1 cells (ILT4/HLA-G Blockade Bioassay) was 0.9 nM.

The target of the next assay is T1, recombinant LILRB2 ECD (human, UniProt Q8N423 22-460).
T1 construct: also called biotinylated LILRB2 ECD
T1 sequence (Q8N423 22-460 limits assumed): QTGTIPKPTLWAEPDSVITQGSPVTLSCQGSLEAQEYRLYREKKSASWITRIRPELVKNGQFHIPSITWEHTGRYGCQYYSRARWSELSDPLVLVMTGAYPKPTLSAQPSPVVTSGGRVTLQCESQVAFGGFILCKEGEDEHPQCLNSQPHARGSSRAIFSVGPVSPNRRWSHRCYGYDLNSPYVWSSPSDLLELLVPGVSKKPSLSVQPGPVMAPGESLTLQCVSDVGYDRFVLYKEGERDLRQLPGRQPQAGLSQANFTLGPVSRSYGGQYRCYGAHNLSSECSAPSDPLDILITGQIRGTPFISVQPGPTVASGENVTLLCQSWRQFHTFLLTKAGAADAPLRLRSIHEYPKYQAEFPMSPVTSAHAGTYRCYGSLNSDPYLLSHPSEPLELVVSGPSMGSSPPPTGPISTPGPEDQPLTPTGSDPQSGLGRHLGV
Put plainly: competition ELISA (Example 3): biotinylated LILRB2 ECD with avidin-HRP pre-incubated with antibody 0.1-100 nM, residual binding to coated B2M-HLA-G-mouse IgG2a-Fc; blocked ligand HLA-G.
For the molecule “Ref065 [IO-108, LILRB2 specific] (antibody)”, the IC50 (read off the curve) was 3 nM.

A further assay has as its target T1, recombinant LILRB2 ECD. Put plainly: ELISA, LILRB2 ECD binding to HLA-G-Fc. The protocol: (§1) HLA-G inhibition was tested by ELISA. 384-well Maxisorp plates were coated with 2 ug/mL B2M-HLA-G fused to a mouse IgG2a-Fc and the plates were blocked with 2% (w/v) BSA in PBST. […] 15 ul of the antibody dilution series (300 nM to 0.3 nM) were mixed with 30 μL of the pre-mixed LILRB/Avidin-HRP solution (final antibody concentration 100 nM to 0.1 nM) and incubated for 1 h at room temperature. After three wash cycles with PBST, 20 μL of the antibody/LILRB/Avidin-HRP solution was transferred to the plate with immobilized HLA-G and incubated for 15 min at room temperature. After three wash cycles with PBST, residual LILRB binding to HLA-G was detected by developing the ELISA with TMB substrate.
Background: In an ELISA, binding on a coated surface is turned into a signal by an enzyme label.
Regarding B1, the IC50 – broadly, the concentration that gives 50% inhibition – stood at 3.1 nM.

For the molecule B2, the concentration for half-maximal inhibition (IC50) stood at 4.7 nM.

B3: the IC50 came out at 3.9 nM.

Take B4: the IC50 was found to be 3.4 nM.

B5: the IC50 was 4.6 nM.

As for B6, the IC50 was 7.6 nM.

As to B7, the IC50 was found to be 4.4 nM.

Consider B8, for which the IC50 worked out at 5.6 nM.

As to B9, the 50% inhibitory concentration (IC50) came to 4.2 nM.

Take B10: the IC50 was 4.1 nM.

For B11, the IC50 stood at 7 nM.

For B12, the IC50 worked out at 4.4 nM.

For the molecule B13, the concentration for half-maximal inhibition (IC50) was 2.4 nM.

On to B14, for which the concentration for half-maximal inhibition (IC50) is 8.6 nM.

The target in a further assay is T1, recombinant LILRB2 ECD. Put plainly: BLI, IgG on AHC sensor, ECD in solution. The protocol:
(§2) Briefly, IgGs were captured on anti-human capture (AHC) biosensors (Sartorius). […] Subsequently, the sensors were dipped into 1× Kinetics Buffer to measure the dissociation over 420 s. All sensorgrams were double referenced against 1× Kinetics Buffer and unloaded […] sensors to subtract sensor drifts and potential reference binding of the analytes. The affinities were determined by applying a 1:1 binding model.
B1: the Kd (commonly a measure of binding affinity in units of concentration) came out at 3.4 nM.

In the case of B2, the Kd is 0.4 nM.

B3: the dissociation constant (Kd) was 1.6 nM.

On to B4, for which the Kd was determined as 4.8 nM.

As for B5, the Kd is 1.7 nM.

Regarding B6, the equilibrium dissociation constant (Kd) came to 2.5 nM.

As to B7, the Kd was 3.2 nM.

On to B8, for which the equilibrium dissociation constant (Kd) worked out at 2.7 nM.

On to B9, for which the dissociation constant (Kd) amounted to 0.9 nM.

Take B10: the dissociation constant Kd was 5.6 nM.

As for B11, the Kd came out at 0.3 nM.

For the molecule B12, the Kd stood at 5.8 nM.

As for B13, the dissociation constant Kd is 13.7 nM.

Turning to B14, the Kd worked out at 1.4 nM.

In another assay the target is T2, recombinant LILRA1 ECD (human, UniProt O75019 17-461).
T2 construct: whole canonical entry named; also called LILA1
T2 sequence (O75019 17-461 limits assumed): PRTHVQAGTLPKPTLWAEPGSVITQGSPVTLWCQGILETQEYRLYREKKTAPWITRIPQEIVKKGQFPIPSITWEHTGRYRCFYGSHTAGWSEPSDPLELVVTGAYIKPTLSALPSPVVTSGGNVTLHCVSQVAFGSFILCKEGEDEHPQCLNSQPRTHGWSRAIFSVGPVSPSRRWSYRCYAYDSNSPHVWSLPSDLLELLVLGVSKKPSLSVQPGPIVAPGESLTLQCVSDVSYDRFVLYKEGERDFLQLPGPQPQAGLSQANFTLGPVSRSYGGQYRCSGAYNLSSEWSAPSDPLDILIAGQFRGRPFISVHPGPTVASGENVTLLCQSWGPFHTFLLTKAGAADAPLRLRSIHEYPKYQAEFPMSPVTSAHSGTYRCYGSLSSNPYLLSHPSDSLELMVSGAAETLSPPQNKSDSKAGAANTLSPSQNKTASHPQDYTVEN
Put plainly: BLI, IgG on AHC sensor, ECD in solution. The protocol: as §2
Background: Biolayer interferometry detects binding as a change in optical thickness at a sensor tip.
In the case of B2, the Kd turned out to be 0.6 nM.

Consider B3, for which the Kd was found to be 48.3 nM.

Regarding B4, the Kd was determined as 209 nM.

B5: the Kd was 128 nM.

B6: the Kd is 79.5 nM.

For B7, the Kd is 63.8 nM.

B8: the Kd stood at 29.5 nM.

B9: the Kd worked out at 11.6 nM.

As to B10, the dissociation constant (Kd) worked out at 1070 nM.

Consider B11, for which the equilibrium dissociation constant (Kd) was 51.6 nM.

B12: the Kd was found to be 242 nM.

B13: the Kd is 1030 nM.

Consider B14, for which the Kd turned out to be 23 nM.

The next assay addresses T3, recombinant LILRB1 ECD (human, UniProt Q8NHL6 24-461).
T3 construct: also called biotinylated LILRB1 ECD
Put plainly: BLI, IgG on AHC sensor, ECD in solution. The protocol:
as §2
Consider B2, for which the dissociation constant (Kd) turned out to be 0.5 nM.

As to B3, the Kd came to 1.8 nM.

B4: the equilibrium dissociation constant (Kd) was 6.7 nM.

For B5, the Kd was 2.6 nM.

On to B6, for which the Kd was 2.2 nM.

With B7, the dissociation constant Kd worked out at 3.2 nM.

On to B8, for which the dissociation constant Kd is 1.9 nM.

On to B9, for which the Kd stood at 0.8 nM.

On to B10, for which the Kd worked out at 8.7 nM.

As to B11, the Kd amounted to 6.6 nM.

As to B12, the Kd amounted to 17.5 nM.

For the molecule B13, the Kd was 21.6 nM.

As to B14, the Kd is 0.5 nM.

Another assay concerns the target T4, recombinant LILRA3 (human, UniProt Q8N6C8 24-439).
T4 construct: whole entry named; also called LILRA3 ECD; LILA3
Put plainly: BLI, IgG on AHC sensor, ECD in solution. The protocol:
as §2
Turning to B2, the dissociation constant Kd was 1.4 nM.

For the molecule B3, the equilibrium dissociation constant (Kd) came to 187 nM.

For the molecule B4, the Kd worked out at 448 nM.

B5: the equilibrium dissociation constant (Kd) amounted to 318 nM.

For B6, the equilibrium dissociation constant (Kd) was 253 nM.

Turning to B7, the Kd worked out at 124 nM.

Regarding B8, the Kd is 123 nM.

For the molecule B9, the dissociation constant Kd was determined as 50.1 nM.

On to B10, for which the Kd came out at 1970 nM.

As to B11, the dissociation constant Kd came out at 345 nM.

As to B12, the equilibrium dissociation constant (Kd) came out at 465 nM.

With B13, the dissociation constant (Kd) amounted to 1550 nM.

On to B14, for which the Kd turned out to be 84.8 nM.

The target of another assay is T3, recombinant LILRB1 ECD. Put plainly: ELISA, LILRB1 ECD binding to HLA-G-Fc. The protocol: as §1
With B2, the half-inhibitory concentration (IC50) is 5.7 nM.

As for B3, the IC50 stood at 3.9 nM.

For B4, the half-inhibitory concentration (IC50) was determined as 2.2 nM.

With B5, the concentration for half-maximal inhibition (IC50) turned out to be 1.9 nM.

On to B6, for which the IC50 was found to be 10.5 nM.

As for B7, the IC50 was found to be 6.7 nM.

As to B8, the IC50 amounted to 6.5 nM.

Turning to B9, the 50% inhibitory concentration (IC50) is 4.1 nM.

As to B10, the IC50 came out at 2 nM.

For the molecule B11, the IC50 was 2.1 nM.

Consider B12, for which the IC50 was found to be 1.5 nM.

Regarding B13, the IC50 came to 2 nM.

For B14, the IC50 worked out at 8.3 nM.

In the next assay the target is LILRB2 on primary monocytes (human) (UniProt Q8N423). Put plainly: flow cytometry, primary monocytes.
Sequence of LILRB2 on primary monocytes (human) (Q8N423 22-597 limits assumed): as the sequence (Q8N423 22-597 limits assumed) above
B1 registered an EC50 of 1 nM.
